Measured values published in the Immune Epitope Database (IEDB).

How the values were obtained:
HLA-B*51:01 = experiment: IEDB peptide-MHC binding, purified MHC/competitive/radioactivity; filed as Kd, often an IC50 or EC50 that approximates it; ≥ and ≤ were set here for values at or beyond the usual limits of such assays
HLA-A*01:01 = experiment: IEDB peptide-MHC binding, purified MHC/direct/fluorescence; filed as Kd, often an IC50 or EC50 that approximates it; ≥ and ≤ were set here for values at or beyond the usual limits of such assays; settings: source organism: Homo sapiens
HLA-A*69:01 = experiment: as above
HLA-A*11:01 = experiment: as above
HLA-B*53:01 = experiment: IEDB peptide-MHC binding, purified MHC/competitive/radioactivity; filed as Kd, often an IC50 or EC50 that approximates it; ≥ and ≤ were set here for values at or beyond the usual limits of such assays
HLA-A*30:02 = experiment: as above
HLA-A*02:01 [1] = experiment: IEDB peptide-MHC binding, purified MHC/competitive/fluorescence; filed as Kd, often an IC50 or EC50 that approximates it; ≥ and ≤ were set here for values at or beyond the usual limits of such assays
HLA-A*24:02 = experiment: IEDB peptide-MHC binding, purified MHC/competitive/radioactivity; filed as Kd, often an IC50 or EC50 that approximates it; ≥ and ≤ were set here for values at or beyond the usual limits of such assays
HLA-A*03:01 = experiment: IEDB peptide-MHC binding, purified MHC/direct/fluorescence; filed as Kd, often an IC50 or EC50 that approximates it; ≥ and ≤ were set here for values at or beyond the usual limits of such assays
HLA-A*02:01 [2] = experiment: IEDB peptide-MHC binding, purified MHC/competitive/fluorescence; ≥ and ≤ were set here for values at or beyond the usual limits of such assays
HLA-A*30:01 = experiment: IEDB peptide-MHC binding, purified MHC/competitive/radioactivity; filed as Kd, often an IC50 or EC50 that approximates it; ≥ and ≤ were set here for values at or beyond the usual limits of such assays
HLA-A*02:01 [3] = experiment: IEDB peptide-MHC binding, purified MHC/direct/fluorescence; filed as Kd, often an IC50 or EC50 that approximates it; ≥ and ≤ were set here for values at or beyond the usual limits of such assays
HLA-B*15:01 = experiment: as above; settings: source organism: Yellow fever virus 17D
HLA-B*07:02 = experiment: as above
HLA-B*58:01 = experiment: as above; settings: source organism: Homo sapiens
HLA-B*40:01 = experiment: as above
HLA-A*02:03 = experiment: IEDB peptide-MHC binding, purified MHC/competitive/radioactivity; filed as Kd, often an IC50 or EC50 that approximates it; ≥ and ≤ were set here for values at or beyond the usual limits of such assays
HLA-A*02:06 = experiment: as above
HLA-A*02:02 = experiment: as above
[4] = source organism: Dengue virus 2 Jamaica/1409/1983
[5] = source organism: Dengue virus 4 Philippines/H241/1956
[6] = source organism: Dengue virus 3 Martinique/1243/1999
[7] = source organism: West Nile virus
[8] = source organism: Sudan ebolavirus
[9] = source organism: Vaccinia virus WR
[10] = source organism: Cryptosporidium parvum
[11] = source organism: Orthomarburgvirus marburgense
[12] = source organism: Francisella tularensis subsp. holarctica LVS
[13] = source organism: Campylobacter jejuni RM1221
[14] = source organism: Dengue virus 1 Brazil/97-11/1997
[15] = source organism: Human immunodeficiency virus 1
[16] = source organism: Dengue virus 3 Singapore/8120/1995
[17] = source organism: SARS coronavirus Tor2
[18] = source organism: Cryptosporidium hominis

YAQIQPHWI
Kd (HLA-B*51:01; [4]): 1080 nM

DSDGSFFLY
Kd (HLA-A*01:01): 25 nM | Kd (HLA-A*69:01; source organism: Homo sapiens): ≥ 25100 nM | Kd (HLA-A*11:01; source organism: Homo sapiens): ≥ 20600 nM

YTTMFGGVSW
Kd (HLA-B*53:01; [5]): 119 nM

IWLKLREVY
Kd (HLA-A*30:02; [6]): ≥ 76900 nM

IMLKANFSV
Kd (HLA-A*02:01 [1]; source organism: Influenza A virus (A/Hokkaido/20/89(H3N2))): 0.3 nM

VYRIKQQGI
Kd (HLA-A*24:02; [6]): 464 nM

VPLAGPMVA
Kd (HLA-B*51:01; [5]): 17000 nM

GVNKQTAMK
Kd (HLA-A*11:01; [7]): 20.3 nM | Kd (HLA-A*03:01; [7]): 600 nM

STSNGLITS
IC50 (HLA-A*02:01 [2]; [8]): ≥ 177000 nM

KAISNARLK
Kd (HLA-A*30:01; [9]): 26 nM

STKNILVTV
Kd (HLA-A*69:01; [10]): 60.7 nM | Kd (HLA-A*02:01 [3]; [10]): 416 nM

HLALTCILK
Kd (HLA-A*03:01; source organism: Salmonella enterica subsp. enterica serovar Typhi): 123 nM

CAIILGGLTW
Kd (HLA-B*53:01; [5]): 549 nM

SVKEDLVAY
Kd (HLA-B*15:01): 95.5 nM

KIKSSNSSK
Kd (HLA-A*30:01; [9]): 14.6 nM

LNLSGVNNL
IC50 (HLA-A*02:01 [2]; source organism: Zaire ebolavirus): ≥ 77500 nM

GLYPQLSAI
Kd (HLA-A*69:01; [11]): 3860 nM | Kd (HLA-A*02:01 [3]; [11]): 123 nM

MAICSAVPTE
Kd (HLA-A*30:01; [5]): 10600 nM

KLYSYGIGY
Kd (HLA-A*11:01; [12]): 75.4 nM | Kd (HLA-A*03:01; [12]): 1.4 nM

LWPKTHTLW
Kd (HLA-A*24:02; [5]): 44.9 nM

VMGITAEWLW
Kd (HLA-B*53:01; [6]): 39.9 nM

GIYHDICEI
Kd (HLA-A*69:01; [13]): ≥ 20000 nM | Kd (HLA-A*02:01 [3]; [13]): 162 nM

QNKEGDQYIY
Kd (HLA-A*30:02; source organism: Dengue virus 1 Nauru/West Pac/1974): 1350 nM

VAWRTATLI
Kd (HLA-B*51:01; [6]): 137 nM

GLNLEGSGV
IC50 (HLA-A*02:01 [2]; [8]): 3860 nM

RNQNKEGDQY
Kd (HLA-A*30:02; [14]): 120 nM

ILLSCIHTT
Kd (HLA-A*02:01 [1]; source organism: Vaccinia virus Copenhagen): 1.2 nM

LAGFMAYMI
Kd (HLA-B*51:01; [5]): 7090 nM | Kd (HLA-B*53:01; [5]): 2120 nM

PPTAGILARW
Kd (HLA-B*53:01; [14]): 10300 nM

TTRDKLFNK
Kd (HLA-A*30:01; [9]): 123 nM

KVASEGFQY
Kd (HLA-A*30:02; [14]): 28.9 nM

LCRTSCLQK
Kd (HLA-A*30:01; [5]): 1350 nM

IMKQAASMK
Kd (HLA-A*03:01; source organism: Giardia lamblia ATCC 50803): 63.5 nM

PPFGESNIV
Kd (HLA-B*51:01; [6]): 1790 nM

LPEEQDQNYV
Kd (HLA-B*51:01; [6]): 11900 nM

YPAEITLTW
Kd (HLA-B*07:02; source organism: Homo sapiens): 147 nM | Kd (HLA-B*58:01): 55 nM

EEFFCVHGM
Kd (HLA-B*40:01; source organism: Mycobacterium tuberculosis): 167 nM

VHQVFGTAY
Kd (HLA-A*30:02; [14]): 599 nM

TPEGEVGAI
Kd (HLA-B*53:01; [14]): ≥ 40200 nM

AARHKHQVM
Kd (HLA-B*07:02; source organism: Danio rerio): 64.8 nM

ATPQDLNTM
Kd (HLA-B*07:02; [15]): 11200 nM | Kd (HLA-A*02:01 [3]; [15]): ≥ 28800 nM

CNLTSTWVTY
Kd (HLA-A*30:02; [6]): ≥ 68900 nM

YLFNWAVRT
IC50 (HLA-A*02:01 [2]; source organism: Hepatitis C virus genotype 1): 5000 nM

KAKTTISNY
Kd (HLA-A*30:01; [9]): 24.3 nM

VPGLPGTVL
Kd (HLA-B*07:02; source organism: SARS-CoV1): 91.5 nM | Kd (HLA-A*11:01; source organism: SARS-CoV1): 4550 nM

GYHTQTAGPW
Kd (HLA-A*24:02; [4]): 3250 nM

ISRSRRLFA
Kd (HLA-A*30:01; [9]): 2.23 nM

LAYVVIGIL
Kd (HLA-B*51:01; [6]): 1320 nM

GCGRGGWSYY
Kd (HLA-A*30:02; [6]): 9.43 nM

MPGTRKVMEI
Kd (HLA-B*51:01; [16]): 1100 nM | Kd (HLA-B*53:01; [16]): 76.4 nM

IAGGVCYYLL
Kd (HLA-A*02:03; [9]): 14600 nM | Kd (HLA-A*02:06; [9]): 656 nM | Kd (HLA-A*02:02; [9]): 4580 nM

LIVILFIMFM
Kd (HLA-A*02:03; [9]): 433 nM | Kd (HLA-A*02:06; [9]): 120 nM | Kd (HLA-A*02:02; [9]): 85.1 nM

FGCKPLTMFL
Kd (HLA-B*51:01; [14]): ≥ 35100 nM

WLGAAITLVV
Kd (HLA-A*02:03; [9]): 78.4 nM | Kd (HLA-A*02:06; [9]): 1840 nM | Kd (HLA-A*02:02; [9]): 19.7 nM

KLLYAAEMV
Kd (HLA-A*02:03; [9]): 54.3 nM | Kd (HLA-A*02:06; [9]): 17.9 nM | Kd (HLA-A*02:02; [9]): 57.6 nM

RRRPVTRPL
Kd (HLA-B*07:02; source organism: Candidatus Solibacter): 3.4 nM

ALVCYIVMPV
Kd (HLA-A*02:03; [17]): 4.4 nM | Kd (HLA-A*02:06; [17]): 2.92 nM | Kd (HLA-A*02:02; [17]): 1.2 nM

SGFGGETPV
Kd (HLA-A*69:01; [18]): 13500 nM | Kd (HLA-A*02:01 [3]; [18]): 863 nM

MAFDISVNA
Kd (HLA-A*02:03; [9]): 15.1 nM | Kd (HLA-A*02:06; [9]): 13.2 nM | Kd (HLA-A*02:02; [9]): 191 nM

TKLEGKIVQY
Kd (HLA-A*30:02; [14]): 7040 nM

PPTAGILKRW
Kd (HLA-B*53:01; [4]): 3270 nM

LEKTHNGKL
Kd (HLA-B*40:01; source organism: Influenza A virus (A/RI/5-/1957(H2N2))): 124 nM

PLHIVCSKT
Kd (HLA-A*02:03; [9]): 2150 nM | Kd (HLA-A*02:06; [9]): 3890 nM | Kd (HLA-A*02:02; [9]): 997 nM

FKLTYQNKVV
Kd (HLA-B*51:01; [4]): ≥ 60000 nM

RFLGEDGCWY
Kd (HLA-A*30:02; [5]): 26.3 nM

LISILMIFI
Kd (HLA-A*02:03; [9]): ≥ 5000 nM | Kd (HLA-A*02:06; [9]): 7040 nM | Kd (HLA-A*02:02; [9]): 2370 nM
